{"source": "paper PMC4716841", "about": "“Attenuation of AMPK signaling by ROQUIN promotes T follicular helper cell formation” (eLife, 2015)", "binders": {"B1": {"name": "ROQUIN, endogenous (mouse) (natural protein, UniProt Q4VGL6 1-1130, looked up)", "chain": "MPVQAPQWTDFLSCPICTQTFDETIRKPISLGCGHTVCKMCLNKLHRKACPFDQTTINTDIELLPVNSALLQLVGAQIPEQQPITLCSGVEDTKHYEEAKKCVEELALYLKPLSSARGVGLNSTTQSVLSRPMQRKLVTLVHCQLVEEEGRIRAMRAARSLGERTVTELILQHQNPQQLSSNLWAAVRARGCQFLGPAMQEEALKLVLLALEDGSALSRKVLVLFVVQRLEPRFPQASKTSIGHVVQLLYRASCFKVTKRDEDSSLMQLKEEFRTYEALRREHDSQIVQIAMEAGLRIAPDQWSSLLYGDQSHKSHMQSIIDKLQTPASFAQSVQELTIALQRTGDPANLNRLRPHLELLANIDPSPDAPPPTWEQLENGLVAVRTVVHGLVDYIQNHSKKGADQQQPPQHSKYKTYMCRDMKQRGGCPRGASCTFAHSQEELEKFRKMNKRLVPRRPLSASLGQLNEVGLPSAPILSDESAVDLSNRKPPALPNGIASSGSTVTQLIPRGTDPSFDSSLKPVKLDHLSSSAPGSPPDLLESAPKSISALPVNPHPVPPRGPTDLPPMPVTKPIQMVPRGSQLYPAQQADVYYQDPRGSAPAFETAPYQQGMYYTPPPCVSRFVRPPPSAPEPGPPYLDHYSPYLQDRVINSQYGTQPQQYPPMYPAHYDGRRVYPAQSYTREEMFRESPIPIDIPSAAVPSYVPESRERYQQVEGYYPVAPHPAQIRPSYPRDPPYSRLPPPQPHPSLDELHRRRKEIMAQLEERKVISPPPFAPSPTLPPAFHPEEFLDEDLKVAGKYKANDYSQYSPWSCDTIGSYIGTKDAKPKDVVAAGSVEMMNVESKGTREQRLDLQRRAVETSDDDLIPFGDRPTVSRFGAISRTSKTLYQGAGPLQAIAPQGAPTKSINISDYSAYGAHGGWGDSPYSPHANIPPQGHFIEREKMSMAEVASHGKPLLSAEREQLRLELQQLNHQISQQTQLRGLEAVSNRLVLQREVNTLASQPQPPQLPPKWPGMISSEQLSLELHQVEREIGKRTRELSMENQCSVDMKSKLGTSKQAENGQPEPQNKIRTEDLTLTFSDVPNGSALTQENLSLLSNKTSSLNLSEDSEGGGDNNDSQRSGVVSNSAP", "notes": "ROQUIN (ROQUIN1), encoded by Rc3h1, endogenous in mouse cells; also called ROQUIN1; encoded by Rc3h1; source: endogenous, primary C57BL/6 MEFs (in situ); endogenous, EL4 cell lysate"}}, "molecular_target": "T1, AMPKα1, endogenous (mouse), catalytic α1 subunit of adenosine monophosphate-activated protein kinase (mouse (endogenous in primary C57BL/6 …, UniProt Q5EG47 1-559))", "T1 construct": "AMPK catalytic α1 subunit, encoded by Prkaa1, endogenous in mouse cells; In the cells it may stand with AMPK β and γ subunits; also called α1 subunit of AMPK; encoded by Prkaa1; source: endogenous, primary C57BL/6 MEFs (in situ); endogenous, EL4 cell lysate", "T1 sequence (Q5EG47 whole entry)": "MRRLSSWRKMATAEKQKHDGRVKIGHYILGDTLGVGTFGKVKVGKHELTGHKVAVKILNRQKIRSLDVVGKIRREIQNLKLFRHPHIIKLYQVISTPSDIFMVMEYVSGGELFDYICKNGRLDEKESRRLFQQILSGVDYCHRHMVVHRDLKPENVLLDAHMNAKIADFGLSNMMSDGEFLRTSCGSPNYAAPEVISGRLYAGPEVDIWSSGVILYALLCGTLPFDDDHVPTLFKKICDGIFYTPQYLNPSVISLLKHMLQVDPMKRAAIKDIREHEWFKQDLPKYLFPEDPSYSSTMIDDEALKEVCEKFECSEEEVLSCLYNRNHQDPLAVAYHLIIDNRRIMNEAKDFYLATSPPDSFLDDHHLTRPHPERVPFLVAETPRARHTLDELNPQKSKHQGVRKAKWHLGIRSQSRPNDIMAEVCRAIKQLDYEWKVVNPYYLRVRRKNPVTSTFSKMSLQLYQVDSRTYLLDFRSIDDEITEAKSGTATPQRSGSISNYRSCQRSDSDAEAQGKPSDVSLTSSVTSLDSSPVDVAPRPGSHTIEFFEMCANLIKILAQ", "experiment": "proximity ligation; in situ PLA on primary C57BL/6 MEFs, endogenous proteins; goat anti-AMPKα1 (C20) with rabbit anti-ROQUIN, overnight at 4°C; resting cells or 1 mM arsenite for 1 hr; control PLA GFP:AMPKα1", "settings": "partners not purified", "data": [{"binder": "B1", "values": [{"measurement": "fold PLA frequency over the ROQUIN:AGO2 PLA of earlier work", "value": "≥ 15", "unit": "fold"}]}]}
